Laboratory results reported in paper PMC12784962, “https://orcid.org/0000-0002-3633-7823 Baral Joydeep Department of Bioscience and Biotechnology, Indian Institute of Technology Kharagpur, West Midnapore 721302, West Bengal, India”.

B1: shDNA (21-mer/34-mer hairpin) (structured_DNA)
DNA 1: GTTTTTAGTTTATTGGGCGCG
DNA 2: CGCGCCCAGCTTTCCCAGCTAATAAACTAAAAAC
B2: 50-bp Cy3/Cy5 FRET dsDNA (dsDNA)
DNA 1: CCACACTGTCGCCGCCGACGTCTGTGATATGGCGTTGTTGCGCCGCCGAC
DNA 2: GTCGGCGGCGCAACAACGCCATATCACAGACGTCGGCGGCGACAGTGTGG

Assays:
mKu WT [1] = biological target: T1, mKu WT (Mycobacterium tuberculosis, UniProt P9WKD9 1-273); test: cryo-EM; 5 uM mKu dimer and 5 uM DNA; supercomplex; EMSA: 25 mM Tris-Cl pH 7.5, 100 mM NaCl, 30 mM KCl, 0.1 mM EDTA, 0.05% Triton X-100, BSA, 2% glycerol, 2 mM DTT, 25 C, 30 min; FRET: 10 mM PBS pH 7.4, 25 C; cryo-EM: 4 C, 30 min; settings: protein: recombinant; pET16b); chain copies: 2; hairpin at one end, other end blunt
T1 sequence: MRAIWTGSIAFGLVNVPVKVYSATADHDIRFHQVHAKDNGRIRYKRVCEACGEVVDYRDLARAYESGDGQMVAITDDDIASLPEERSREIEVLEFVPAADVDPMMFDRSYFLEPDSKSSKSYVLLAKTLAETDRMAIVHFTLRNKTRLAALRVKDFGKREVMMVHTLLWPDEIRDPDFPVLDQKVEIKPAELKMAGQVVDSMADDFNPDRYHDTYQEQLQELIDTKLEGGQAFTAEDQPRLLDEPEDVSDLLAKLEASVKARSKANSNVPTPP

mKu WT [2] = biological target: T1, mKu WT; test: FRET; 250 nM DNA, 0-305 nM mKu; saturating synapsis signal; EMSA: 25 mM Tris-Cl pH 7.5, 100 mM NaCl, 30 mM KCl, 0.1 mM EDTA, 0.05% Triton X-100, BSA, 2% glycerol, 2 mM DTT, 25 C, 30 min; FRET: 10 mM PBS pH 7.4, 25 C; cryo-EM: 4 C, 30 min; settings: protein: recombinant; pET16b); chain copies: 2; label: S4: 5'-Cy5, 3'-Cy3; complement (S5): 5'-Cy3, 3'-Cy5; blunt

| Binder | binding result (mKu WT [1]) | binding result (mKu WT [2]) |
| --- | --- | --- |
| B1 | binds | – |
| B2 | – | binds |
